Assays:
G4 Resolvase 1 (G4R1) [1] = molecular target: T1, G4 Resolvase 1 (G4R1) (UniProt Q9H2U1 1-1008); experiment: EMSA; K+; 50 mM KCl, 10 mM NaCl (or 50 mM KCl or 50 mM NaCl alone), 3 mM MgCl2, 50 mM Tris acetate pH 7.8, 70 mM glycine, 0.012% bovine lactalbumin, 10% glycerol, 10 mM EDTA; 37 C, 0.5 or 24 h; 1 pM DNA, 10-500 pM G4R1; gel at 7 C; settings: protein: recombinant, label: 5'-32P, unimolecular G4, 3+1 in K+
T1 sequence: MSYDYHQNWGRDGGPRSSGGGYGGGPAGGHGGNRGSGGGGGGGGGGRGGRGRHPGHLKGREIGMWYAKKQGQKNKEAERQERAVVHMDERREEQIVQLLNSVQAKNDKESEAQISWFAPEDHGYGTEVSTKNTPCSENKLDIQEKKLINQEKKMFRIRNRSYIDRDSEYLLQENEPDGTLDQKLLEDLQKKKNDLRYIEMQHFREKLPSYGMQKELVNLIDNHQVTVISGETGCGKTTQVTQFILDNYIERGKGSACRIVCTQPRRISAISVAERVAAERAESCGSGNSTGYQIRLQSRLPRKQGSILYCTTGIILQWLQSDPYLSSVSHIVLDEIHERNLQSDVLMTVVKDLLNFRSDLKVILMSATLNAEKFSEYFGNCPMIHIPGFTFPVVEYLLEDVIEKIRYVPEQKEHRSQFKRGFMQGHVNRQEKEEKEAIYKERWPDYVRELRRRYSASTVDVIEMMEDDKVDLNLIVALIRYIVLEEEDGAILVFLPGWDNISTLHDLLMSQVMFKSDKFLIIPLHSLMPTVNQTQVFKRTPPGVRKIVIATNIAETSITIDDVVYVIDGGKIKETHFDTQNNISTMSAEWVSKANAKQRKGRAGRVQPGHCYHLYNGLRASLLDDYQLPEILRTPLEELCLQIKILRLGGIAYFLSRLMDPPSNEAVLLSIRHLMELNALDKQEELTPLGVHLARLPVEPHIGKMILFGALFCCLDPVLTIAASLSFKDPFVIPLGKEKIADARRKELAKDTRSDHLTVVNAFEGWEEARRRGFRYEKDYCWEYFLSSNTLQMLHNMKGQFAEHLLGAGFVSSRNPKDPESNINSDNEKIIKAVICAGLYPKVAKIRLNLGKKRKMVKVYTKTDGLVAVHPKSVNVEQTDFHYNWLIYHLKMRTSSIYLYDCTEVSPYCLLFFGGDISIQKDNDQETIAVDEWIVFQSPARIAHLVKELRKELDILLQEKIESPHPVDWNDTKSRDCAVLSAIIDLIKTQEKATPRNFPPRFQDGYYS

G4 Resolvase 1 (G4R1) [2] = molecular target: T1, G4 Resolvase 1 (G4R1); experiment: EMSA; 50 mM KCl, K+-induced 3+1 G4, 24 h; apparent Kd, n=3; 50 mM KCl, 10 mM NaCl (or 50 mM KCl or 50 mM NaCl alone), 3 mM MgCl2, 50 mM Tris acetate pH 7.8, 70 mM glycine, 0.012% bovine lactalbumin, 10% glycerol, 10 mM EDTA; 37 C, 0.5 or 24 h; 1 pM DNA, 10-500 pM G4R1; gel at 7 C; settings: protein: recombinant; label: 5'-32P; unimolecular G4; 3+1 in K+, 2+2 basket in Na+
G4 Resolvase 1 (G4R1) [3] = molecular target: T1, G4 Resolvase 1 (G4R1); experiment: EMSA; K+; complete binding restored; 50 mM KCl, 10 mM NaCl (or 50 mM KCl or 50 mM NaCl alone), 3 mM MgCl2, 50 mM Tris acetate pH 7.8, 70 mM glycine, 0.012% bovine lactalbumin, 10% glycerol, 10 mM EDTA; 37 C, 0.5 or 24 h; 1 pM DNA, 10-500 pM G4R1; gel at 7 C; settings: protein: recombinant; label: 5'-32P; unimolecular G4, two tetrads expected
G4 Resolvase 1 (G4R1) [4] = molecular target: T1, G4 Resolvase 1 (G4R1); experiment: EMSA; K+; significant binding restored; 50 mM KCl, 10 mM NaCl (or 50 mM KCl or 50 mM NaCl alone), 3 mM MgCl2, 50 mM Tris acetate pH 7.8, 70 mM glycine, 0.012% bovine lactalbumin, 10% glycerol, 10 mM EDTA; 37 C, 0.5 or 24 h; 1 pM DNA, 10-500 pM G4R1; gel at 7 C; settings: protein: recombinant; label: 5'-32P; unimolecular G4, two tetrads expected
G4 Resolvase 1 (G4R1) [5] = molecular target: T1, G4 Resolvase 1 (G4R1); experiment: EMSA; K+; negligible binding; 50 mM KCl, 10 mM NaCl (or 50 mM KCl or 50 mM NaCl alone), 3 mM MgCl2, 50 mM Tris acetate pH 7.8, 70 mM glycine, 0.012% bovine lactalbumin, 10% glycerol, 10 mM EDTA; 37 C, 0.5 or 24 h; 1 pM DNA, 10-500 pM G4R1; gel at 7 C; settings: protein: recombinant; label: 5'-32P; G4 ablated (CD)
G4 Resolvase 1 (G4R1) [6] = molecular target: T1, G4 Resolvase 1 (G4R1); experiment: EMSA; K+; similar to Tel33; 50 mM KCl, 10 mM NaCl (or 50 mM KCl or 50 mM NaCl alone), 3 mM MgCl2, 50 mM Tris acetate pH 7.8, 70 mM glycine, 0.012% bovine lactalbumin, 10% glycerol, 10 mM EDTA; 37 C, 0.5 or 24 h; 1 pM DNA, 10-500 pM G4R1; gel at 7 C; settings: protein: recombinant, label: 5'-32P
G4 Resolvase 1 (G4R1) [7] = molecular target: T1, G4 Resolvase 1 (G4R1); experiment: EMSA; K+; did not significantly bind; 50 mM KCl, 10 mM NaCl (or 50 mM KCl or 50 mM NaCl alone), 3 mM MgCl2, 50 mM Tris acetate pH 7.8, 70 mM glycine, 0.012% bovine lactalbumin, 10% glycerol, 10 mM EDTA; 37 C, 0.5 or 24 h; 1 pM DNA, 10-500 pM G4R1; gel at 7 C; settings: protein: recombinant; label: 5'-32P; unimolecular G4, 3+1 in K+, at most 2 nt 3' tail
[8] = unimolecular 5' G4 with about 11 nt 3' tail

B1: Tel22 (structured_DNA)
DNA: AGGGTTAGGGTTAGGGTTAGGG
binding result (G4 Resolvase 1 (G4R1) [1]; no 3' tail): no binding

B2: Tel33 (structured_DNA)
DNA: TTAGGGTTAGGGTTAGGGTTAGGGTTAGGGTTA
Kd (G4 Resolvase 1 (G4R1) [2]): 0.01 ± 0.0019 nM

B3: Tel33mut5-mutA-pos7G (structured_DNA)
DNA: TTAGAGGTAGGGTTAGGGTTAGGGTTAGAGTTA
binding result (G4 Resolvase 1 (G4R1) [3]): binds

B4: Tel33mut5-mutA-pos3G (structured_DNA)
DNA: TTGGAGTTAGGGTTAGGGTTAGGGTTAGAGTTA
binding result (G4 Resolvase 1 (G4R1) [4]): binds

B5: Tel33mut5-mutA (ssDNA)
DNA: TTAGAGTTAGGGTTAGGGTTAGGGTTAGAGTTA
binding result (G4 Resolvase 1 (G4R1) [5]): no binding

B6: Tel33mut5 (structured_DNA)
DNA: TTAGGGTTAGGGTTAGGGTTAGGGTTAGAGTTA
binding result (G4 Resolvase 1 (G4R1) [6]; unimolecular 5' G4 with 3' tail about 11 nt): binds

B7: Tel30 (structured_DNA)
DNA: GGTTAGGGTTAGGGTTAGGGTTAGGGTTAG
binding result (G4 Resolvase 1 (G4R1) [1]): binds

B8: Tel26 (structured_DNA)
DNA: TTAGGGTTAGGGTTAGGGTTAGGGTT
binding result (G4 Resolvase 1 (G4R1) [7]): no binding

B9: Tel22-3'polyT-mutAGAA (structured_DNA)
DNA: AGGGTTAGGGTTAGGGTTAGGGTTAGAATTTTT
binding result (G4 Resolvase 1 (G4R1) [6]; [8]): binds

B10: Tel22-3'polyT-mutAAGA (structured_DNA)
DNA: AGGGTTAGGGTTAGGGTTAGGGTTAAGATTTTT
binding result (G4 Resolvase 1 (G4R1) [6]; [8]): binds
